Data from patent US20190358242A1, “COMPOSITIONS, KITS, AND METHODS TO INDUCE ACQUIRED CYTORESISTANCE USING STRESS PROTEIN INDUCERS” (FRED HUTCHINSON CANCER RESEARCH CENTER, priority 2017, published 2019).

What was measured:
maleate model of AKI = experiment: Maleate model of AKI (800 mg/Kg), FeS/SnPP and FeS/B12; format: in vivo, CD-1 mice; settings: IV 18 hrs before 800 mg/Kg maleate; 18 hrs post maleate; 1 mg FeS, 1 μmole SnPP or B12
Excerpt: Effects of Fe sucrose (FeS)/tin protoporphyrin (SnPP) on AKI severity. Maleate model of AKI. When injected into rodents, maleate undergoes relatively selective proximal tubule cell uptake via organic anion transporters. Once intracellular accumulation occurs, maleate is a preferred substrate for succinyl-CoA:3-oxoacid CoA transferase. […] Ample levels of CoA are essential for fatty acid “activation”, allowing for their subsequent metabolism through the Krebs cycle, yielding ATP. In the absence of this process, proximal tubule ATP depletion and cell injury result. Additionally, maleate conjugates the sulfhydryl group of glutathione (GSH), culminating in GSH depletion and potential oxidant tubular stress.
The following experiment tested whether FeS, SnPP or combined FeS+SnPP can mitigate this form of acute kidney injury (AKI). Twenty seven mice were subjected to 200 μL IV tail injections of one of the following: 1) vehicle (phosphate buffered saline, PBS; n, 10); 2) 1 mg FeS (American Regent (Shirley, N.Y.; n, 3); 3) 1 μmole SnPP (Frontier Scientific, Logan, Utah; n 7), or FeS+SnPP, n, 7). […] The severity of kidney injury was assessed by determining plasma blood urea nitrogen (BUN) and plasma creatinine (PCr) concentrations.
Maleate model of AKI. […] The severity of AKI was determined 18 hrs post maleate injection by terminal BUN and PCr assessments.

HO-1 protein [1] = experiment: Renal cortical HO-1 protein (ELISA) after FeS, SnPP, B12; format: in vivo, CD-1 mice
Description: Effects of FeS, SnPP, and B12 on renal cortical induction of heme oxygenase 1(HO-1). The following experiments assessed the effects of FeS, SnPP, and B12 on the possible induction of the cytoprotective protein HO-1. To this end, mice were injected with each of these agents, as noted above. Either 4 or 18 hrs later, they were anesthetized and the kidneys were removed through a midline abdominal incision. The renal cortices were dissected on ice and then extracted for protein and mRNA. The samples were then assayed for HO-1 protein by ELISA, and HO-1 mRNA by RT-PCR, factored by GAPDH levels. Five normal mice provided control values.

ferritin heavy chain = experiment: Kidney ferritin heavy chain expression (Western blotting); format: in vivo, mice; settings: 18 hrs following 1 umole SnPP, 1 mg FeS or combined
Description: FIG. 32. Ferritin heavy chain expression (as determined by Western blotting) in kidneys 18 hrs following 1 umole tin protoporphyrin (SnPP), 1 mg Fe sucrose (FeS) or combined SnPP+FeS treatment.

haptoglobin mRNA [2] = experiment: Liver haptoglobin mRNA (RT-PCR); format: in vivo, CD-1 mice
Description: (§1) Thirty-two mice were divided into 4 equal groups: (1) control mice; (2) mice treated with 1 mg of N-Mgb injection (as a bolus through the tail vein); (3) mice treated with […] of SnPP (via tail vein); and (4) mice treated with combined N-Mgb 1 SnPP. After either 4 hours (n=16) or 18 hours (n=16), the mice were deeply anesthetized with pentobarbital (50 mg/kg), the abdomen was opened through a midline abdominal incision, and the kidneys were removed. To determine potential effects on extrarenal organs, a liver lobe and the heart were also removed. The tissues were iced and then extracted for protein and RNA (RNeasy Plus Mini; Qiagen, Valencia, Calif.) and subjected to enzyme linked immunosorbent assay (ELISA) and reverse transcriptase polymerase chain reaction (RT-PCR) for HO-1, haptoglobin, and IL-10 protein and messenger RNAs (mRNAs). Zager et al. J Am Soc Nephrol 2014; 25:998-1012; Zager et al. Am J Physiol 2012; 303:F139-48. As an assessment of renal function, control mice and the 18 hour after N-Mgb+SnPP-treated mice had blood urea nitrogen (BUN) and plasma creatinine levels measured. Additionally, transverse 10% formalin fixed kidney sections ([…]) were cut and stained with hematoxylin and eosin (H&E) and periodic acid Schiff (PAS) to further assess potential injury.

IL-10 mRNA [3] = experiment: Cardiac IL-10 mRNA (RT-PCR); format: in vivo, CD-1 mice
Description: as §1

HO-1 mRNA [4] = experiment: Cardiac HO-1 mRNA (RT-PCR); format: in vivo, CD-1 mice
Description: as §1

[5] = Serum creatinine after 2 hr subcutaneous infusion of nitrited myoglobin + SnPP; format: in vivo, mice; settings: 2 hr SC infusion 1, 3, 6, 12, or 25 mg/Kg + 1 μmole SnPP; 18 hrs later
Description: Mice were subjected to a 2 hr subcutaneous infusion of 1, 3, 6, 12, or 25 mg/Kg of nitrited myoglobin (holding SnPP at a constant dose of 1 μmole). Eighteen hrs later, potential renal injury was assessed by measuring serum creatinine concentrations.
An obvious concern by applying this prophylactic strategy to patients is potential renal and/or extrarenal toxicities. […] Furthermore, it was previously documented in a cell culture system that nitrite addition markedly reduces myoglobin's cytotoxic effects by 75% (unpublished data, 2014). To assess the potential in vivo margin of safety for N-Mgb+SnPP (see Supplemental FIGS.), the maximal amount of N-Mgb that could be given to mice before nephrotoxicity was observed was tested. Up to 25 times the employed N-Mgb dose (with a constant SnPP dose) could be administered (over 2 hours) without induction of nephrotoxicity (normal BUN and creatinine, 18 hours later).

haptoglobin protein [6] = experiment: Liver haptoglobin protein (ELISA); format: in vivo, CD-1 mice; parameters: unit not given beside the values
Description: as §1

HO-1 protein [7] = experiment: Kidney HO-1 protein (ELISA); format: in vivo, CD-1 mice
Description: as §1

haptoglobin mRNA [8] = experiment: Cardiac haptoglobin mRNA (RT-PCR); format: in vivo, CD-1 mice
Description: as §1

HO-1 mRNA [9] = experiment: Kidney HO-1 mRNA (RT-PCR); format: in vivo, CD-1 mice
Description: as §1

IL-10 protein [10] = experiment: Liver IL-10 protein (ELISA); format: in vivo, CD-1 mice
Description: as §1

[11] = tested on: glycerol model of rhabdomyolysis-induced AKI; experiment: Glycerol model of rhabdomyolysis-induced AKI; format: in vivo, CD-1 mice; settings: IV pretreatment 18 h before glycerol; 18 hours after glycerol
Description: Assessments of cytoresistance. Glycerol model of rhabdomyolysis-induced AKI. Twenty mice were divided into 4 equal groups (controls, mice treated with N-Mgb, SnPP, and mice treated with N-Mgb+SnPP tail vein injections) as described previously. 18 hours later, the mice were briefly anesthetized with isoflurane and immediately injected with 9 mL/kg of 50% glycerol, administered in equally divided doses into each hind limb. At 18 hours after glycerol injection, the mice were anesthetized with pentobarbital, the abdomen was opened, a blood sample for BUN and creatinine assessments was obtained from the vena cava, and the kidneys were resected. The control post-glycerol group and the N-Mgb+SnPP-pretreated glycerol group had kidney sections stained with H&E.
To assess whether the previously determined plasma and kidney HO-1 and haptoglobin levels correlated with degrees of cytoresistance, additional mice were injected with 0, 2.5, or 5 mg of N-Mgb […] of SnPP (n=3 mice per group). Eighteen hours later, all mice were subjected to the glycerol AKI model as described previously. Severities of AKI were determined 18 hours after glycerol injection by BUN and plasma creatinine analyses.
Calculations and statistics. All values are given as the mean […] standard error of the mean. Statistical comparisons were made by unpaired Student's t test. […]

IL-10 protein [12] = experiment: Kidney IL-10 protein (ELISA); format: in vivo, CD-1 mice
Description: as §1

HO-1 protein [13] = experiment: Cardiac HO-1 protein (ELISA); format: in vivo, CD-1 mice; settings: 4 h after IV injection
Description: as §1

IL-10 mRNA [14] = experiment: Liver IL-10 mRNA (RT-PCR); format: in vivo, CD-1 mice
Description: as §1

haptoglobin mRNA [15] = experiment: Kidney haptoglobin mRNA (RT-PCR); format: in vivo, CD-1 mice
Description: as §1

haptoglobin protein [16] = experiment: Cardiac haptoglobin protein (ELISA); format: in vivo, CD-1 mice
Description: as §1

HO-1 mRNA [17] = experiment: Liver HO-1 mRNA (RT-PCR); format: in vivo, CD-1 mice
Description: as §1

IL-10 protein [18] = experiment: Cardiac IL-10 protein (ELISA); format: in vivo, CD-1 mice
Description: as §1

HK-2 cells = experiment: HK-2 cell injury by MTT assay; format: cell-based; settings: 10 mg/ml, equimolar Na nitrite, 18 hr incubation
Description: HK-2 cells (a proximal tubule cell line derived from normal human kidney) were incubated in keratinocyte serum free medium either under normal (control) conditions or in the presence of 10 mg/mL horse skeletal muscle myoglobin or nitrited myoglobin (produced by equimolar Na nitrite addition to 10 mg/ml myoglobin). After 18 hr incubations, the severity of cell injury (% cell death) was assessed by MTT assay. Myoglobin induced 40% cell death (40% decrease in MTT cell uptake), compared to control incubated cells. Nitrite binding to myoglobin reduced cell death by 75%. Thus, nitrite binding is able to reduce myoglobin's cytotoxic effects.

HO-1 protein [19] = experiment: Liver HO-1 protein (ELISA); format: in vivo, CD-1 mice; parameters: unit not given beside the values
Description: as §1

IL-10 mRNA [20] = experiment: Kidney IL-10 mRNA (RT-PCR); format: in vivo, CD-1 mice
Description: as §1

haptoglobin protein [21] = experiment: Kidney haptoglobin protein (ELISA); format: in vivo, CD-1 mice
Description: as §1

[22] = 4 h after IV injection, N-Mgb 1 mg, SnPP 1 mmol [sic]

iron sucrose [FeS]
Severity of maleate-induced AKI (BUN/PCr), in words (maleate model of AKI): Neither SnPP alone nor FeS alone significantly altered the severity of renal injury
HO-1 protein increases (FIG. 21) (HO-1 protein [1]; 4 hrs and 18 hrs after IV injection): marked HO-1 protein increases within 4 hrs and persists for 18 hrs
Renal cortical HO-1 protein levels (HO-1 protein [1]; 18 hr time point): remained elevated at the 18 hr time point, particularly in the case of FeS administration
Ferritin heavy chain protein levels in kidney (ferritin heavy chain): strong ferritin inducer

B1: N-Mgb: horse myoglobin converted into a nitrited form by addition of equimolar sodium nitrite (protein, UniProt P68082 2-154, looked up)
Myoglobin: GLSDGEWQQVLNVWGKVEADIAGHGQEVLIRLFTGHPETLEKFDKFKHLKTEAEMKASEDLKKHGTVVLTALGGILKKKGHHEAELKPLAQSHATKHKIPIKYLEFISDAIIHVLHSKHPGDFGADAQGAMTKALELFRNDIAAKYKELGFQG
modifications: nitrite-modified
notes: horse myoglobin converted into a nitrited form by addition of equimolar sodium nitrite
Liver mRNA Haptoglobin (haptoglobin mRNA [2]; 4 h after IV injection): 0.98 ± 0.1
Liver mRNA Haptoglobin (haptoglobin mRNA [2]; 18 h after IV injection): 0.91 ± 0.07
Cardiac mRNA IL-10 (IL-10 mRNA [3]; 4 h after IV injection): 0.86 ± 0.11
Cardiac mRNA IL-10 (IL-10 mRNA [3]; 18 h after IV injection): 0.67 ± 0.10
Cardiac mRNA HO-1 (HO-1 mRNA [4]; 4 h after IV injection): 0.09 ± 0.01
Cardiac mRNA HO-1 (HO-1 mRNA [4]; 18 h after IV injection): 0.08 ± 0.01
Serum creatinine concentration change [5]: No significant increase
Liver protein Haptoglobin (haptoglobin protein [6]; 4 h after IV injection): 359.5 ± 39.6
Liver protein Haptoglobin (haptoglobin protein [6]; 18 h after IV injection): 358.8 ± 32.8
Renal HO-1 protein increase, in words (HO-1 protein [7]; 18-hour time point, agent alone): only relatively small HO-1 protein increases
Kidney HO-1 protein (HO-1 protein [7]; [22]): 36.1 ± 2.9
Kidney protein HO-1 (HO-1 protein [7]; 18 h after IV injection): 30 ± 6
Cardiac mRNA Haptoglobin (haptoglobin mRNA [8]; 4 h after IV injection): 0.75 ± 0.10
Cardiac mRNA Haptoglobin (haptoglobin mRNA [8]; 18 h after IV injection): 0.53 ± 0.21
Kidney mRNA HO-1 (HO-1 mRNA [9]; [22]): 3.38 ± 0.38
Renal HO-1 mRNA increase, in words (HO-1 mRNA [9]; 4 hour, agent alone): only modest increases
Kidney mRNA cortex HO-1 (HO-1 mRNA [9]; 18 h after IV injection): 0.58 ± 0.18
Liver protein IL-10 (IL-10 protein [10]; 4 h after IV injection): 286 ± 32
Liver protein IL-10 (IL-10 protein [10]; 18 h after IV injection): 5988 ± 549
Protection against glycerol-induced AKI judged by BUN/creatinine levels [11]: modest protection
Kidney IL-10 protein (IL-10 protein [12]; [22]): 265 ± 54
Kidney protein IL-10 (IL-10 protein [12]; 18 h after IV injection): 292 ± 54
Renal IL-10 protein increase, in words (IL-10 protein [12]; 18 hours, agent alone): absence of IL-10 protein increases
Cardiac protein HO-1 (HO-1 protein [13]): 1.64 ± 0.19
Liver mRNA IL-10 (IL-10 mRNA [14]; 4 h after IV injection): 0.67 ± 0.46
Liver mRNA IL-10 (IL-10 mRNA [14]; 18 h after IV injection): 0.06 ± 0.02
Kidney mRNA Haptoglobin (haptoglobin mRNA [15]; [22]): 1.94 ± 0.31
Kidney mRNA cortex Haptoglobin (haptoglobin mRNA [15]; 18 h after IV injection): 0.24 ± 0.04
Cardiac protein Haptoglobin (haptoglobin protein [16]; 4 h after IV injection): 40.4 ± 8.6
Cardiac protein Haptoglobin (haptoglobin protein [16]; 18 h after IV injection): 249.6 ± 15.0
Liver mRNA HO-1 (HO-1 mRNA [17]; 4 h after IV injection): 1.83 ± 0.33
Liver mRNA HO-1 (HO-1 mRNA [17]; 18 h after IV injection): 0.82 ± 0.07
Cardiac Protein IL-10 (IL-10 protein [18]; 4 h after IV injection): 21 ± 12
Cardiac protein IL-10 (L-10 [sic]) (IL-10 protein [18]; 18 h after IV injection): 14.5 ± 10^
Reduction of myoglobin-induced cell death by nitrite binding (HK-2 cells): 75%
Liver protein HO-1 (HO-1 protein [19]; 4 h after IV injection): 17 ± 2
Liver protein HO-1 (HO-1 protein [19]; 18 h after IV injection): 14.9 ± 0.3
Impact on renal IL-10 mRNA levels, in words (IL-10 mRNA [20]; 4-hour time point, agent alone): either minimal or no impact
Kidney mRNA IL-10 (IL-10 mRNA [20]; [22]): 1.45 ± 0.6
Kidney mRNA cortex IL-10 (IL-10 mRNA [20]; 18 h after IV injection): 0.43 ± 0.10
Renal haptoglobin protein levels, in words (haptoglobin protein [21]; 18-hour time point, vs combination): comparably increased
Kidney Haptoglobin protein (haptoglobin protein [21]; [22]): 17.6 ± 1^
Kidney protein Haptoglobin (haptoglobin protein [21]; 18 h after IV injection): 183.8 ± 20.4
